According to article PMC6233088:

Experiments:
[1] = target: RGA5_S (RGA5 982-1116), small C-terminal fragment of RGA5 carrying the HMA domain (rice) (UniProt F7J0N2); assay: ITC
[2] = target: minimal RGA5HMA construct (RGA5 991-1072) (rice) (UniProt F7J0N2); assay: ITC
[3] = target: RGA5_S (RGA5 982-1116), small C-terminal fragment of RGA5 carrying the HMA domain (rice) (UniProt F7J0N2); assay: crystal structure

Substance | Kd [1] | Kd [2] | stoichiometry N [3]
dSP-AVR-Pia (AVR-Pia with its signal peptide deleted), recombinant (natural protein) | 1.8 µM |  | 
dSP-AVR1-CO39 (AVR1-CO39 with its signal peptide deleted), wild type, recombinant (natural protein) |  | 7.2 µM | 1
